# Tests used:
# [1] = system: O=[N+]([O-])c1ccc(OP(=O)(O)Oc2ccc([N+](=O)[O-])cc2)cc1; experiment: purified protein; assay type: biochemical, Shigella flexneri; details: standard assay: 50 mM HEPES pH 7.5, 2 mM MnCl2
# [2] = system: O=[N+]([O-])c1ccc(OP(=O)(O)Oc2ccc([N+](=O)[O-])cc2)cc1; experiment: purified protein; assay type: biochemical, Thiobacillus denitrificans; details: standard assay: 50 mM HEPES pH 7.5, 2 mM MnCl2
Substance,Km [1] [mM],Vmax [1] [µmol/min/mg],kcat [1] [s⁻¹],kcat/Km [1] [M⁻¹ s⁻¹],Km [2] [mM],Vmax [2] [µmol/min/mg],kcat [2] [s⁻¹],kcat/Km [2] [M⁻¹ s⁻¹]
SFV_3559 EAL domain (YhjK) (Shigella flexneri),14.1 ± 4.2,2.1,8,600,,,,
TBD1265 EAL domain (Thiobacillus denitrificans ATCC 25259),,,,,20.0 ± 1.3,0.1,0.06,3

# From article PMC2945410
